Measurements reported in patent US20150056222A1.

Molecular target: mouse PRLR on HEK293 cells (mouse) (UniProt Q08501)
Assay: FACS, HEK293/mPRLR cells

Sequence of mouse PRLR on HEK293 cells (mouse) (Q08501 20-608): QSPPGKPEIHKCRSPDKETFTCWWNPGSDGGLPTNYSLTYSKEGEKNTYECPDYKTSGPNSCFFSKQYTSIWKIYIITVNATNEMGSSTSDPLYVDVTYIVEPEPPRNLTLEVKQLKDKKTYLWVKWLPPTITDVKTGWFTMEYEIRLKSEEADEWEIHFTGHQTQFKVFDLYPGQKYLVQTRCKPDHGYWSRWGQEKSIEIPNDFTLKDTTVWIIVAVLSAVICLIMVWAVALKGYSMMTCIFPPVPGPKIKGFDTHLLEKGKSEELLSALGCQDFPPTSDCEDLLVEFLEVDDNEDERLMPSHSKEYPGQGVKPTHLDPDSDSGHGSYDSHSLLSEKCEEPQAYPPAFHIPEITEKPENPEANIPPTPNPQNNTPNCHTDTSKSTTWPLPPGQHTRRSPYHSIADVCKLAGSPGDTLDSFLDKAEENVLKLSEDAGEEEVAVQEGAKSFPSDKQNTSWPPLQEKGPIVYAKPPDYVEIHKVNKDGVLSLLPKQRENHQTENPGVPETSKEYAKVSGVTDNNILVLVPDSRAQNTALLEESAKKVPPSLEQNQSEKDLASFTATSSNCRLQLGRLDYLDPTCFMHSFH

Work on Isotype Ctrl I (antibody) yielded an FACS Cell Binding (Fold Above Background) (fold above background) of 1.
